# Measured values: patent publication US20100260754A1 (Eli Lilly, published 2010)
# B1: Antibody II (antibody, human IgG4 S228P, kappa, F234A L235A, V domains shown)
# VH: EVQLVESGGGLVQPGGSLRLSCAASGFTFSSYTMSWVRQAPGKGLEWVATISGGGFGTYYPDSVKGRFTISRDNAKNSLYLQMNSLRAEDTAVYYCARPGYNNYYFDIWGQGTTVTVSS
# VL: EIVLTQSPATLSLSPGERATLSCHASDSISNSLHWYQQKPGQAPRLLIYYARQSIQGIPARFSGSGSGTDFTLTISSLEPEDFAVYYCQQSESWPLHFGGGTKVEIKR
# notes: also called human engineered DKK-1 antibody
# What was measured:
# [1] = target: T1, rabbit DKK-1 (SEQ ID NO: 32) (rabbit, UniProt O94907 32-265 (human entry), limits assumed); assay: cell-based or functional assay
# T1 chain: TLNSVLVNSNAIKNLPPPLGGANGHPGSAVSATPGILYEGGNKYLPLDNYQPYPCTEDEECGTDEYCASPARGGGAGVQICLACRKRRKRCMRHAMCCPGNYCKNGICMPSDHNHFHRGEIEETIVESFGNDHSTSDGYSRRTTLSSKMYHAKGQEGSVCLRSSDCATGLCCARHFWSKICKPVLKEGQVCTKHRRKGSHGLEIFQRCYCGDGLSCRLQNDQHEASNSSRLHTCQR
# [2] = target: T2, human DKK-1 (SEQ ID NO: 29) (human, UniProt O94907 32-266); assay: cell-based or functional assay
# T2 sequence: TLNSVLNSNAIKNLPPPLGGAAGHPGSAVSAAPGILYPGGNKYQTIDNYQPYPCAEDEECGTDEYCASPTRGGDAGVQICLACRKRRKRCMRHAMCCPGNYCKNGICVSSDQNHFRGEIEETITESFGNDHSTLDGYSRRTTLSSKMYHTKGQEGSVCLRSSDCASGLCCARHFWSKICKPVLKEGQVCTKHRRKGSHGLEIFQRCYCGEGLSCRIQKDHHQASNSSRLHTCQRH
# [3] = target: T3, cynomolgus DKK-1 (SEQ ID NO: 30) (cynomolgus, UniProt O94907 32-265 (human entry), limits assumed); assay: cell-based or functional assay
# T3 chain: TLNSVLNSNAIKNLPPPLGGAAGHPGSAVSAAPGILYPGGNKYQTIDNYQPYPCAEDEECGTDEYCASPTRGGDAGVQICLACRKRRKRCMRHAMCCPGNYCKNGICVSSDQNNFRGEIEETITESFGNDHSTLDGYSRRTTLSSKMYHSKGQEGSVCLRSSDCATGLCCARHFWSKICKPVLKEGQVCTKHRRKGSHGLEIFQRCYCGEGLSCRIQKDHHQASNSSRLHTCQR
# [4] = target: T4, rat Dkk-1 (SEQ ID NO: 31) (rat, UniProt O54908 32-272 (mouse entry), limits assumed); assay: cell-based or functional assay
# T4 chain: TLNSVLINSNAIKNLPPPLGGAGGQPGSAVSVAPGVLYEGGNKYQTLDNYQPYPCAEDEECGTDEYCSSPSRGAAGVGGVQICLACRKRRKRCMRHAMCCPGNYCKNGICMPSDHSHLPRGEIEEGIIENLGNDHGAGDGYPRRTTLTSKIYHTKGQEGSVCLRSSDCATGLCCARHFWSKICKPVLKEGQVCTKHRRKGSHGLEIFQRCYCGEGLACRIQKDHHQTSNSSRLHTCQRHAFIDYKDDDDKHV
# [5] = target: T1, rabbit DKK-1 (SEQ ID NO: 32); assay: KinExA solution equilibrium, 37 C, His-tagged DKK-1
# Protocol: (§1) To establish a binding equilibrium, a constant concentration of antibody is mixed with varying concentrations of His-tagged DKK-1 (SEQ ID NO:29, SEQ ID NO:30, SEQ ID NO:31, SEQ ID NO:32, or SEQ ID NO:33) (1 nM-1 pM range) in PBS (pH 7.4)+1 mg/mL bovine serum albumin (“BSA”) or buffer alone and incubated for several days at 37° C. Two sets of binding reactions are set up, one set at low concentration of antibody (3 pM) and one set at high concentration of antibody (30 or 50 pM).
# (§2) After establishing equilibrium, a KinExA 3000 instrument (Sapidyne Inst. Inc.) is used to probe for the fraction of ‘free’ (unbound) antibody. Briefly, His-tagged DKK-1 is covalently coupled to NHS-activated Sepharose 4 Fast Flow beads (GE Healthcare) which are packed by the instrument to create a small column. The pre-equilibrated mixtures of antibody+His-tagged DKK-1 are passed over the beads to capture only free antibody. The amount of free antibody captured is proportional to the free concentration in the equilibrated samples, and is detected by injection of a fluorescently labeled secondary antibody. Data sets from low and high concentrations of antibody are fit globally using n-curve analysis in the KinExA software. This fitting returns a Kd value as well as the 95% confidence interval.
# [6] = target: T2, human DKK-1 (SEQ ID NO: 29); assay: as above
# Protocol: as §1, §2
# [7] = target: T5, mouse DKK-1 (SEQ ID NO: 33) (mouse, UniProt O54908 32-272); assay: as above
# T5 construct: also called His-tagged DKK-1; Murine
# T5 sequence: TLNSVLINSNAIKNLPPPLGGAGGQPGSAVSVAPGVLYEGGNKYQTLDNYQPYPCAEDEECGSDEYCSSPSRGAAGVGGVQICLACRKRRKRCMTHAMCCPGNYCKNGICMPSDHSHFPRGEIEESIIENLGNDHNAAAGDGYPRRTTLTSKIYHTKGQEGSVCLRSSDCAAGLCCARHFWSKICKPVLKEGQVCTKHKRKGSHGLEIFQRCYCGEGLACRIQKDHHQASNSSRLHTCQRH
# Protocol: as §1, §2
# [8] = target: T3, cynomolgus DKK-1 (SEQ ID NO: 30); assay: as above
# Protocol: as §1, §2
# [9] = target: T4, rat Dkk-1 (SEQ ID NO: 31); assay: as above
# Protocol: as §1, §2
binder,measurement,setting,value
B1,"EC50, block of DKK-1-mediated inhibition of alkaline phosphatase in C2C12 cells",[1],6000 pM
same,"EC50, block of DKK-1-mediated inhibition of alkaline phosphatase in C2C12 cells",[2],9800 pM
same,"EC50, block of DKK-1-mediated inhibition of alkaline phosphatase in C2C12 cells",[3],6400 pM
same,"EC50, block of DKK-1-mediated inhibition of alkaline phosphatase in C2C12 cells",[4],2900 pM
same,Kd,[5],17 pM
same,Kd,[6],3.3 pM
same,Kd,[7],7 pM
same,Kd,[8],14 pM
same,Kd,[9],8.4 pM
